Like-named read-outs stand apart in the source and are kept apart here.
T1: rhesus monkey PRLR expressed on cells (rhesus monkey, UniProt F7HIU9 25-619)
T1 construct: whole, on cells; also called rhesus PRLR; BaF3-rhesus PRLR
T1 sequence: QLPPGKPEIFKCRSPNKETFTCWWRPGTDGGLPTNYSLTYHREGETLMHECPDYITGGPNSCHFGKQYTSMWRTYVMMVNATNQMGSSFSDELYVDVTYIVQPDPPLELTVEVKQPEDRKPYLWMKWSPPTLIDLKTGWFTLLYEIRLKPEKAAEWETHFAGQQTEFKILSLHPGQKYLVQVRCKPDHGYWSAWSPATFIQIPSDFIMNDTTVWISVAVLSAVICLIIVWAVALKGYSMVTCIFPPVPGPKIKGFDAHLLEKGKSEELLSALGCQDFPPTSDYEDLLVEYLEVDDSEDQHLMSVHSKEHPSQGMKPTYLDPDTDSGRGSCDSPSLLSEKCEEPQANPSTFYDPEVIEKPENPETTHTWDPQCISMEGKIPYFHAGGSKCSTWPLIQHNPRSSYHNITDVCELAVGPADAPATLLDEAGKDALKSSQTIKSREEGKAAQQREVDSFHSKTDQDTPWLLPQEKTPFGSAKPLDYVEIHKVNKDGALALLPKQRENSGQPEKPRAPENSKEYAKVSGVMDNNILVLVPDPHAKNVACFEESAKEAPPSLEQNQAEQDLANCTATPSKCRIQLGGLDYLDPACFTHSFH

T2: extracellular domain of rhesus and cynomolgus monkey PRLR (Fc-His removed by Factor Xa digestion) (rhesus and cynomolgus monkey, UniProt P16471 25-234 (human entry))
T2 construct: the fusion part was removed by Factor Xa before SPR; also called Rhesus/Cynomolgus PRLR; Rhesus and cynomolgus monkey ECD PRLR
T2 chain: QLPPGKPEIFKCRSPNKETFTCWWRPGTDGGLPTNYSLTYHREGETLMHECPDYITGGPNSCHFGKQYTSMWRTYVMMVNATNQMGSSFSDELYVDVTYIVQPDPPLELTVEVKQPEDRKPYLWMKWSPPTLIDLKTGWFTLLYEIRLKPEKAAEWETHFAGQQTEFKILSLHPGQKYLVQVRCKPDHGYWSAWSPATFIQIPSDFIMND

T3: extracellular domain of murine PRLR (soluble, monomeric) (mouse, UniProt Q08501 20-229)
T3 construct: Expressed in HEK293 cells; also called Murine ECD PRLR; Mouse PRLR
T3 sequence: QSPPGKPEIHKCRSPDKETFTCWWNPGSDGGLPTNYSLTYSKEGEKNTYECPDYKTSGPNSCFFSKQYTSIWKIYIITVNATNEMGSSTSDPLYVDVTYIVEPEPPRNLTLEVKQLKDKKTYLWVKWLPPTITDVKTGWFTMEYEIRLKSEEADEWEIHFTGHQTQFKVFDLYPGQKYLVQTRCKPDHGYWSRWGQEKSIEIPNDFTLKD

T4: extracellular domain of human PRLR (soluble, monomeric) (human, UniProt P16471 25-234)
T4 construct: also called Human ECD PRLR; ECD-PRLR
T4 sequence: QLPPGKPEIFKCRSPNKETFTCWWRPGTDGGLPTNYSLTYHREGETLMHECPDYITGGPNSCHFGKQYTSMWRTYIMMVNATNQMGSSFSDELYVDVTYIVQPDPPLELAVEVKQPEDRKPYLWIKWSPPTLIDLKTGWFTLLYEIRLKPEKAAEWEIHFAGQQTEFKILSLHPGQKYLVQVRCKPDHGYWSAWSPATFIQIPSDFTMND


Assays:
[1] = target: human PRLR expressed on cells (human) (UniProt P16471); experiment: flow cytometry on human T47D breast cancer cells (natural PRLR), IgG1 format
[2] = target: murine PRLR expressed on cells (mouse) (UniProt Q08501); experiment: flow cytometry on HEK293-murine PRLR cells, IgG1 format
[3] = target: murine PRLR expressed on cells (mouse) (UniProt Q08501); experiment: flow cytometry on BaF3-mouse PRLR cells, IgG1 format
[4] = target: human PRLR expressed on cells (human) (UniProt P16471); experiment: flow cytometry on HEK293-human PRLR cells, IgG1 format
[5] = target: human PRLR expressed on cells (human) (UniProt P16471); experiment: cell-based or functional assay
[6] = target: murine PRLR expressed on cells (mouse) (UniProt Q08501); experiment: cell-based or functional assay
[7] = target: T1, rhesus monkey PRLR expressed on cells; experiment: flow cytometry on BaF3-rhesus PRLR cells, IgG1 format
[8] = target: T1, rhesus monkey PRLR expressed on cells; experiment: cell-based or functional assay
[9] = target: human PRLR expressed on cells (human) (UniProt P16471); experiment: flow cytometry on BaF3-human PRLR cells, IgG1 format
[10] = target: human PRLR expressed on cells (human) (UniProt P16471); experiment: cell-based or functional assay; remark: listed apart in the source
[11] = target: murine PRLR expressed on cells (mouse) (UniProt Q08501); experiment: cell-based or functional assay; remark: listed apart in the source
[12] = target: T1, rhesus monkey PRLR expressed on cells; experiment: flow cytometry on Ba/F cells expressing rhesus monkey PRLR, Example 9
Description: The cells were harvested, centrifuged and resuspended at approximately 2×10⁶ cells/ml in 1×PBS containing 3% FBS and 0.05% sodium azide (FACS buffer). […] For secondary antibody and autofluorescence controls, 50 μl FACS buffer was added to appropriate wells. 50 μl of cell suspension was added to each sample well. Samples were incubated at 4° C. for one hour, washed twice with cold FRCS buffer and resuspended in FACS buffer containing PE-conjugated goat anti-human IgG at a 1:100 dilution. Following a 30 min incubation at 4° C., cells were washed twice with cold FACS buffer, resuspended in FACS buffer containing 1 mg/ml propidium iodide (Invitrogen, San Diego, Calif.) and analyzed by flow cytometry.

[13] = target: human PRLR expressed on cells (human) (UniProt P16471); experiment: flow cytometry on HEK293 cells expressing human PRLR, Example 9
[14] = target: T2, extracellular domain of rhesus and …; experiment: SPR (Biacore T100), antibody captured via anti-human IgG Fc, monovalent ECD as analyte, Example 13
Description: (§1) Antibodies were immobilized onto a CM5 sensor chip through an indirect capturing reagent, anti-human IgG Fc. […] Approximately 5000 RU monoclonal mouse anti-human IgG (Fc) antibody were immobilized per cell. Each test antibody was injected at a concentration of 5 μg/ml at 10 μl/min for 10 sec to reach a capturing level of approximately 200 to 600 RU. […] Sensograms were generated after in-line reference cell correction followed by buffer sample subtraction. The dissociation equilibrium constant (KD) was calculated based on the ratio of association (kon) and dissociation rated (koff=kd) constants, obtained by fitting sensograms with a first order 1:1 binding model using BiaEvaluation Software (see Table 7).

[15] = target: T3, extracellular domain of murine PRLR …; experiment: as above
Description: as §1

[16] = target: T4, extracellular domain of human PRLR …; experiment: as above
Description: as §1

[17] = target: T2, extracellular domain of rhesus and …; experiment: SPR (Biacore T100), antibody captured via anti-human IgG Fc, monovalent ECD as analyte, Example 10
Description: (§2) Antibodies were immobilized onto a CM5 sensor chip through an indirect capturing reagent, anti-human IgG Fc. […] Approximately 5000 RU monoclonal mouse anti-human IgG (Fc) antibody were immobilized per cell. […] Sensograms were generated after in-line reference cell correction followed by buffer sample subtraction. The dissociation equilibrium constant (KD) was calculated based on the ratio of association (kon) and dissociation rated (koff=kd) constants, obtained by fitting sensograms with a first order 1:1 binding model using BiaEvaluation Software.

[18] = target: T3, extracellular domain of murine PRLR …; experiment: as above
Description: as §2

[19] = target: T4, extracellular domain of human PRLR …; experiment: as above
Description: as §2

[20] = target: T4, extracellular domain of human PRLR …; experiment: SPR: ECD-PRLR captured by immobilized Mat3 or HE06642, human PRL passed over

| Binder | EC50 [1] [nM] | EC50 [4] [nM] | EC50 [7] [nM] | IC50, inhibition of prolactin-induced proliferation of BaF3 cells stably transfected with the rhesus prolactin receptor [8] [nM] | EC50 [9] [nM] | Kd [14] [nM] | koff [14] [s⁻¹] | Kd [15] [nM] | koff [15] [s⁻¹] | Kd [16] [nM] | koff [16] [s⁻¹] | further results |
| --- | --- | --- | --- | --- | --- | --- | --- | --- | --- | --- | --- | --- |
| antibody Mat3 in IgG1 format (antibody, V domains shown, also called Mat3 IgG1) VH: EVQLLESGGGLVQPGGSLRLSCAASGFTFSSYWMHWVRQAPGKGLEWVSDIARLSSYTNYADSVKGRFTISRDNSKNTLYLQMNSLRAEDTAVYYCARGLDARRMDYWGQGTLVTVSS VL: QSVLTQPPSASGTPGQRVTISCTGSSSNIGAGYVVHWYQQLPGTAPKLLIYRNNQRPSGVPDRFSGSKSGTSASLAISGLRSEDEADYYCAAWDDSLNGWLFGGGTKLTVLG | 0.4 | 0.8 | 1.2 | 4.6 | 0.1 | – | – | – | – | – | – | EC50 [2]: 0.1 nM; EC50 [3]: 0.2 nM; % inhibition of prolactin-induced proliferation at 1 µg/ml (=6.7 nM) [5]: 100%; IC50, inhibition of LHRE luciferase reporter gene activity in HEK293 cells stably transfected with human PRLR [5]: 0.5 nM; IC50, inhibition of prolactin-induced proliferation of BaF3 cells stably transfected with human prolactin receptor [5]: 0.7 nM; IC50, inhibition of LHRE luciferase reporter gene activity in HEK293 cells stably transfected with murine PRLR [6]: 1.3 nM; IC50, inhibition of prolactin-induced proliferation of BaF3 cells stably transfected with the murine prolactin receptor [6]: 3 nM |
| antibody HE06642 as IgG1 molecule (antibody, V domains shown) VH: EVQLVESGGGLVQPGGSLRLSCAVSGFTFSSYGMSWVRQAPGKGLEWVATVSSGGTYTYYPDSVKGRFTISRDNSKNTLYLQMNSLRAEDTAVYYCARHRGNYYATYYYAMDYWGQGTLVTVSS VL: DIVLTQSPDSLAVSLGERATINCKASKSVSTSGYTYMHWYQQKPGQPPKLLIYLASNRESGVPDRFSGSGSGTDFTLTISPVQAEDVATYYCQHSGELPPSFGQGTKLEIKR | 0.8 | 1.6 | 3.2 | 206 | 0.2 | – | – | – | – | – | – | IC50, inhibition of LHRE luciferase reporter gene activity in HEK293 cells stably transfected with human PRLR [10]: 4.6 nM; IC50, inhibition of prolactin-induced proliferation of BaF3 cells stably transfected with human prolactin receptor [10]: 4.2 nM; IC50, inhibition of LHRE luciferase reporter gene activity in HEK293 cells stably transfected with murine PRLR [11]: > 1330 nM |
| antibody Mat3 as human IgG2 molecule (antibody, V domains shown, also called IgG2 Mat3) VH: EVQLLESGGGLVQPGGSLRLSCAASGFTFSSYWMHWVRQAPGKGLEWVSDIARLSSYTNYADSVKGRFTISRDNSKNTLYLQMNSLRAEDTAVYYCARGLDARRMDYWGQGTLVTVSS VL: QSVLTQPPSASGTPGQRVTISCTGSSSNIGAGYVVHWYQQLPGTAPKLLIYRNNQRPSGVPDRFSGSKSGTSASLAISGLRSEDEADYYCAAWDDSLNGWLFGGGTKLTVLG | – | – | – | – | – | – | – | – | – | – | – | EC50 [12]: 2.94 nM; EC50 [13]: 0.53 nM |
| antibody Mat3 as human IgG molecule (isotype not stated) (antibody, V domains shown, Lambda light chain; also called neutralizing prolactin receptor antibody Mat3) VH: EVQLLESGGGLVQPGGSLRLSCAASGFTFSSYWMHWVRQAPGKGLEWVSDIARLSSYTNYADSVKGRFTISRDNSKNTLYLQMNSLRAEDTAVYYCARGLDARRMDYWGQGTLVTVSS VL: QSVLTQPPSASGTPGQRVTISCTGSSSNIGAGYVVHWYQQLPGTAPKLLIYRNNQRPSGVPDRFSGSKSGTSASLAISGLRSEDEADYYCAAWDDSLNGWLFGGGTKLTVLG | – | – | – | – | – | 9.6 | 0.00102 | 0.4 | 0.000164 | 1.3 | 0.000414 | Kd [17]: 7.1 nM; koff [17]: 0.0011 s⁻¹; Kd [18]: 0.4 nM; koff [18]: 0.00021 s⁻¹; Kd [19]: 0.9 nM; koff [19]: 0.00044 s⁻¹ |
| antibody HE06642 (isotype not stated) (antibody, V domains shown, Kappa light chain; also called he06.642-2 of WO 2008/022295) VH: EVQLVESGGGLVQPGGSLRLSCAVSGFTFSSYGMSWVRQAPGKGLEWVATVSSGGTYTYYPDSVKGRFTISRDNSKNTLYLQMNSLRAEDTAVYYCARHRGNYYATYYYAMDYWGQGTLVTVSS VL: DIVLTQSPDSLAVSLGERATINCKASKSVSTSGYTYMHWYQQKPGQPPKLLIYLASNRESGVPDRFSGSGSGTDFTLTISPVQAEDVATYYCQHSGELPPSFGQGTKLEIKR | – | – | – | – | – | 17 | 0.00579 | 15 | 0.0091 | 0.8 | 0.000533 | – |
| human prolactin (ligand, UniProt P01236 29-227, looked up, also called PRL; Human PRL) LPICPGGAARCQVTLRDLFDRAVVLSHYIHNLSSEMFSEFDKRYTHGRGFITKAINSCHTSSLATPEDKEQAQQMNQKDFLSLIVSILRSWNEPLYHLVTEVRGMQEAPEAILSKAVEIEEQTKRLLEGMELIVSQVHPETKENEIYPVWSGLPSLQMADEESRLSAYYNLLHCLRRDSHKIDNYLKLLKCRIIHNNNC | – | – | – | – | – | – | – | – | – | – | – | binding result [20]: binds |

Reference: patent US20140141003A1 (Bayer, published 2014)
